{"source": "patent US11447809B2", "about": "“Evolution of tRNA synthetases” (President and Fellows of Harvard College, priority 2017, dated 2022)", "molecules": {"B1": {"name": "p-NFRS: previously evolved MjTyrRS variant charging p-nitro-L-phenylalanine; SEQ ID NO: 18, 22 (protein)", "chain": "MDEFEMIKRNTSEIISEEELREVLKKDEKSALIGFEPSGKIHLGHYLQIKKMIDLQNAGFDIIILLADLHAYLNQKGELDEIRKIGDYNKKVFEAMGLKAKYVYGSSFQLDKDYTLNVYRLALKTTLKRARRSMELIAREDENPKVAEVIYPIMQVNPLNYEGVDVAVGGMEQRKIHMLARELLPKKVVCIHNPVLTGLDGEGKMSSSKGNFIAVDDSPEEIRAKIKKAYCPAGVVEGNPIMEIAKYFLEYPLTIKRPEKFGGDLTVNSYEELESLFKNKELHPMRLKNAVAEELIKILEPIRKRL"}, "B2": {"name": "p-IFRS: previously reported MjTyrRS variant evolved to charge p-IF; His160; SEQ ID NO: 19, 23 (protein)", "chain": "B1 chain with N160H"}, "B3": {"name": "chPylRS: chimera of residues 1-149 of MbPylRS and residues 185-454 of MmPylRS; progenitor enzyme (SEQ ID NO: 5) (protein)", "chain": "MDKKPLDVLISATGLWMSRTGTLHKIKHYEVSRSKIYIEMACGDHLVVNNSRSCRTARAFRHHKYRKTCKRCRVSDEDINNFLTRSTEGKTSVKVKVVSAPKVKKAMPKSVSRAPKPLENPVSAKASTDTSRSVPSPAKSTPNSPVPTSASAPALTKSQTDRLEVLLNPKDEISLNSGKPFRELESELLSRRKKDLQQIYAEERENYLGKLEREITRFFVDRGFLEIKSPILIPLEYIERMGIDNDTELSKQIFRVDKNFCLRPMLAPNLYNYLRKLDRALPDPIKIFEIGPCYRKESDGKEHLEEFTMLNFCQMGSGCTRENLESIITDFLNHLGIDFKIVGDSCMVYGDTLDVMHGDLELSSAVVGPIPLDREWGIDKPWIGAGFGLERLLKVKHDFKNIKRAARSESYYNGISTNL"}}, "key": {"tRNACUA^Tyr/Opt": {"system": "tRNACUA^Tyr/Opt", "experiment": "Aminoacylation assay of MjTyrRS variants (32P-labeled tRNA, nuclease P1/TLC)", "assay_type": "biochemical", "conditions": "for Relative catalytic efficiency: relative to p-NFRS with p-NF", "procedure": "(§1) The genes of chPylRS variants and MjTyrRS variants were cloned into pET15a and transformed into BL21(DE3) (New England Biolabs) cells for expression. Cells were grown in 500 mL of LB media supplemented with 100 m/mL ampicillin at 37° C. to an A600 of 0.6-0.8, and protein expression was induced by addition of 0.5 mM IPTG (chPylRS variants) or 1 mM IPTG (MjTyrRS variants). Cells were incubated at 30° C. for an additional 6 h (chPylRS variants) or 4 h (MjTyrRS variants) and harvested by centrifugation at 5,000 g for 10 min at 4° C. The cell pellet was resuspended in 15 mL of lysis buffer (50 mM Tris (pH 7.5), 300 mM NaCl, 20 mM imidazole), and cells were lysed by sonication. The crude extract was centrifuged at 20,000 g for 30 min at 4° C. The soluble fraction was loaded onto a column containing 2 mL of Ni-NTA resin (Qiagen) previously equilibrated with 20 mL of lysis buffer. The column was washed with 20 mL of lysis buffer. The bound protein was then eluted with 2 mL of 50 mM Tris (pH 7.5), 300 mM NaCl, 300 mM imidazole. The purified protein was dialyzed with 50 mM HEPES-KOH (pH 7.5), 50 mM KCl, 1 mM DTT and 50% glycerol and stored at −80° C. for further studies.\n(§2) Template plasmid containing the tRNA^Pyl or tRNACUA^Tyr/Opt gene was purified with the plasmid maxi kit (Qiagen). The plasmid containing tRNA^Pyl (100 μg) was digested with BstNI (New England Biolabs). The tRNACUA^Tyr/Opt gene was amplified by PCR. The BstNI digested template DNA or PCR product was purified by phenol chloroform extraction, followed by ethanol precipitation and dissolved in double distilled water. A His-tagged T7 RNA polymerase was purified over a column of Ni-NTA resin according to manufacturer's instructions (Qiagen). The transcription reaction (40 mM Tris (pH 8); 4 mM each of UTP, CTP, GTP, and ATP at pH 7.0; 22 mM MgCl2; 2 mM spermidine; 10 mM DTT; 6 μg pyrophosphatase (Roche Applied Science); 60 m/mL of DNA template, approximately 0.2 mg/mL T7 RNA polymerase) was performed in 10 mL reactions overnight at 37° C. The tRNA was purified on 12% denaturing polyacrylamide gel containing 8 M urea and TBE buffer (90 mM Tris, 90 mM boric acid, 2 mM EDTA). UV shadowing was used to illuminate the pure tRNA band, which was excised and extracted three times with 1M sodium acetate pH 5.3 at 4° C. The tRNA extractions were then ethanol precipitated, dissolved in RNase-free distilled water, pooled, and finally desalted using a Biospin 30 column (BioRad). The tRNA was refolded by heating to 100° C. for 5 min and slow cooling to room temperature. At 65° C., MgCl2 was added to a final concentration of 10 mM to aid folding. A His-tagged CCA adding enzyme was purified over column of Ni-NTA resin according to manufacturer's instructions (Qiagen). 16 μM refolded tRNA in 50 mM Tris (pH 8.0), 20 mM MgCl2, 5 mM DTT, and 50 μM NaPPi was incubated at room temperature for 1 h with approximately 0.2 mg/mL CCA-adding enzyme and 1.6 μCi/μL of (α-^32P)-labeled ATP (PerkinElmer). The sample was phenol/chloroform extracted and then passed over a Bio-spin 30 column (Bio-Rad) to remove excess ATP.\n(§3) A 20 μL aminoacylation reaction contained the following components for chPylRS variants: 50 mM HEPES-KOH (pH 7.2), 25 mM KCl, 10 mM MgCl2, 5 mM DTT, 10 mM ATP, 25 μg/mL pyrophosphatase (Roche Applied Science), 10 mM amino acids, 500 nM PylRS variants, 5 μM unlabeled tRNA^Pyl, and 100 nM ^32P-labeled tRNA^Pyl. A 20 μL aminoacylation reaction contained the following components for MjTyrRS variants: 50 mM Tris-HCl (pH 7.5), 1 mM DTT, 10 mM MgCl2, 10 mM ATP, 20 μM unlabeled tRNACUA^Tyr/Opt, 3 μM ^32P-labeled tRNACUA^Tyr/Opt, 2 μM MjTyrRS variants. […]"}, "[1]": {"system": "sfGFP(Asn39TAG) expressed in BL21 star DE3 cells", "experiment": "ESI-MS analysis of purified sfGFP(Asn39TAG) for amino acid incorporated", "assay_type": "cell-based, E. coli", "procedure": "Expression of His-tagged sfGFP was performed using the plasmids, cell strains, and antibiotic concentrations described in the methods for sfGFP assays. Saturated overnight cultures were prepared from single colonies of cotransformed cells, which were diluted 1,000-fold into 300 mL of LB media containing 1 mM ncAA where denoted and were grown while shaking at 230 rpm at 37° C. Once the cultures utilizing a pDB070 plasmid grew to a cell density of A600=0.3, AARS expression was induced by supplementing with anhydrotetracycline (ATc) to a final concentration of 200 ng/mL, and incubation was continued. […] Once cultures grew to a cell density of A600=0.5, sfGFP expression was induced by supplementation with a final concentration of 1 mM isopropyl-β-D-thiogalactosidase (IPTG) for cultures utilizing a pET28b(+) plasmid or a final concentration of 1 mM arabinose for cultures utilizing a pBAD plasmid. Incubation with shaking at 37° C. continued for an additional 16 h after induction of sfGFP expression. Cells were harvested by centrifugation at 5,000 g for 10 min at 4° C., and the resulting pellets were resuspended in B-PER II Bacterial Protein Extraction Reagent (Thermo Fisher Scientific) containing EDTA-free protease inhibitor cocktail (Roche). The soluble fraction of the cell lysates were diluted by an equal volume of equilibration buffer (20 mM Tris (pH 7.4), 10 mM imidazole, 300 mM NaCl) and were separately loaded onto a column containing 2 mL of HisPur Ni-NTA resin (Thermo Fisher Scientific) that had been pre-washed with two bed-volumes of equilibration buffer. […]\nPurified protein samples were diluted to 10 μM in dialysis buffer lacking reducing agent or glycerol prior to analysis on an Agilent 6220 ESI-TOF mass spectrometer equipped with an Agilent 1260 HPLC. […] Data was analyzed using Agilent MassHunter Qualitative Analysis software (B.06.00, Build 6.0.633.0 with Bioconfirm). […]"}, "tRNA^Pyl": {"system": "tRNA^Pyl", "experiment": "Aminoacylation assay of chPylRS variants (32P-labeled tRNA, nuclease P1/TLC)", "assay_type": "biochemical", "procedure": "as §1, §2, §3"}}, "note": "Positions count from the first letter of the chain named. Read-outs that look alike come from different tables or passages of the source.", "data": [{"molecule": "B1", "values": [{"measurement": "kcat", "setting": "tRNACUA^Tyr/Opt; amino acid Phe", "value": "0.14 ± 0.003", "unit": "s^−1 × 10^−3"}, {"measurement": "Km", "setting": "tRNACUA^Tyr/Opt; amino acid Phe, read-out: KM^ncAA", "value": "160 ± 30", "unit": "µM"}, {"measurement": "Relative catalytic efficiency", "setting": "tRNACUA^Tyr/Opt; amino acid Phe", "value": 2.3}, {"measurement": "Km", "setting": "tRNACUA^Tyr/Opt; ncAA p-IF", "value": "2230 ± 460", "unit": "µM"}, {"measurement": "kcat", "setting": "tRNACUA^Tyr/Opt; ncAA p-IF", "value": "0.87 ± 0.11", "unit": "s^−1 × 10^−3"}, {"measurement": "Relative catalytic efficiency", "setting": "tRNACUA^Tyr/Opt; ncAA p-IF", "value": 1.03}, {"measurement": "Km", "setting": "tRNACUA^Tyr/Opt; ncAA p-NF", "value": "3680 ± 290", "unit": "µM"}, {"measurement": "kcat", "setting": "tRNACUA^Tyr/Opt; ncAA p-NF", "value": "1.40 ± 0.05", "unit": "s^−1 × 10^−3"}, {"measurement": "Relative catalytic efficiency", "setting": "tRNACUA^Tyr/Opt; ncAA p-NF", "value": 1.00}, {"measurement": "charging of p-IF", "setting": "[1]; LB media, 1 mM p-IF", "value": "efficiently charges p-iodo-L-phenylalanine (p-IF)"}, {"measurement": "charging of Phe", "setting": "[1]; overnight expression in LB media, presence or absence of 1 mM p-NF", "value": "efficiently charges Phe"}]}, {"molecule": "B2", "values": [{"measurement": "selectivity of incorporation into sfGFP", "setting": "[1]; LB media supplemented with both 1 mM p-NF and 1 mM p-IF", "value": "selectively incorporates p-IF"}]}, {"molecule": "B3", "values": [{"measurement": "kcat", "setting": "tRNA^Pyl; BocK substrate, Table 7", "value": "11.88 ± 0.18", "unit": "s^−1 × 10^−3"}, {"measurement": "Km", "setting": "tRNA^Pyl; BocK substrate, Table 7, read-out: KM^ATP", "value": "2.54 ± 0.16", "unit": "µM"}, {"measurement": "Km", "setting": "tRNA^Pyl; BocK substrate, Table 7, read-out: KM^tRNA", "value": "0.26 ± 0.07", "unit": "µM"}, {"measurement": "kcat", "setting": "tRNA^Pyl; L-pyrrolysine substrate, Table 8", "value": "33.24 ± 2.74", "unit": "s^−1 × 10^−3"}, {"measurement": "Km", "setting": "tRNA^Pyl; L-pyrrolysine substrate, Table 8, read-out: KM^Pyl", "value": "21.03 ± 0.15", "unit": "µM"}, {"measurement": "Km", "setting": "tRNA^Pyl; Table 7, read-out: KM^bocK", "value": "1030 ± 50", "unit": "µM"}, {"measurement": "Relative catalytic efficiency", "setting": "tRNA^Pyl; kcat/KM^tRNA relative to chPylRS", "value": 1}]}]}
